Measurements as given in article PMC8835810.

Target: E117K mutant of rabbit muscle pyruvate kinase (rabbit)
Assay: crystal structure; E117K mutant at 7 mg/mL in 50 mM Tris pH 7.0 with 1.0 mM ATP, 1.0 mM MgCl2, 0.2 mM oxalate; hanging drop; 0.2 M magnesium acetate, 0.1 M sodium cacodylate pH 6.5, 18% w/v PEG 8000; space group P212121, four copies in the asymmetric unit

In the case of “E117K mutant of rabbit muscle pyruvate kinase (enzyme)”, the stoichiometry N is reported as 4.
